Laboratory results from PMC10229432.
pKd: −log10 of the molar value.

Key:
[1] = biological target: Epidermal Growth Factor Receptor (EGFR) expressed on the surface of A431 cells (human (endogenous in A431)) (UniProt P00533); assay: on-cell binding assay (cell ELISA, chemiluminescence); as a1, but after the 5 min at 37 °C the plate was irradiated with 365-nm light for 10 min (33 mW per cm2) before washing and fixing; Kd from a sigmoidal nonlinear fit
[2] = biological target: extracellular domain of EGFR (sEGFR) (UniProt P00533); assay: cross-linking; photocrosslinking in PBS, 10-μl reaction: 10 pmol sEGFR (or BSA) with 100 pmol 7D12 mutant (0-200 pmol in Fig. 2d), 5 min at 37 °C, 365-nm light for 10 min; PNGase F; denaturing SDS-PAGE, Coomassie; percent from band intensities

7D12-32pcY-109Bpa (VHH)
pKd [1]: 6.99
percent crosslinked to EGFR [2]: 33%
